From article PMC6863750 come the findings set out here.

The target in assay [1] is Rac1A P29S/Q61L-mCherry-mito (targeted to mitochondria) (D. discoideum) (UniProt P34144). The experiment in a line: mitochondrial co-recruitment.
The target of assay [2] is GFP-CYRI-mito, WT (Dictyostelium CYRI targeted to mitochondria) (D. discoideum). The experiment in a line: mitochondrial co-recruitment.

In assay [1], “Dictyostelium CYRI WT, GFP fusion (natural protein)” displayed a Pearson's coefficient of correlation for co-localisation at the mitochondria of 0.77.

For “Rac1A P29S/Q61L-mCherry (from UniProt P34144 1-194) (natural protein)”, the Pearson's coefficient of correlation for co-localisation at the mitochondria in assay [2] amounted to 0.44.
